B1: CE115HA000/GLS3000 G89D one-arm antibody (antibody, human IgG1, kappa, L234A L235A, N297A, name in Kabat numbering)
heavy: QVQLVESGGGVVQPGRSLRLSCAASGFTFSNAWMHWVRQAPGKGLEWVAQIKAKSNNYATYYAESVKGRFTISRDDSKNSLYLQMNSLKTEDTAVYYCRYVHYGAYYGVDAWGQGTTVTVSSASTKGPSVFPLAPSSKSTSGGTAALGCLVKDYFPEPVTVSWNSGALTSGVHTFPAVLQSSGLYSLSSVVTVPSSSLGTQTYICNVNHKPSNTKVDKKVEPKSCDKTHTCPPCPAPEAAGGPSVFLFPPKPKDTLMISRTPEVTCVVVDVSHEDPEVKFNWYVDGVEVHNAKTKPREEQYASTYRVVSVLTVLHQDWLNGKEYKCKVSNKALPAPIEKTISKAKGQPREPQVYTLPPSRCELTKNQVSLSCAVKGFYPSDIAVEWESNGQPENNYKTTPPVLDSDGSFFLVSKLTVDKSRWQQGNVFSCSVMHEALHNHYTQKSLSLSPDYKDDDDK
chain: EPKSSDKTHTCPPCPAPELLGGPSVFLFPPKPKDTLMISRTPEVTCVVVDVSHEDPEVKFNWYVDGVEVHNAKTKPREEQYNSTYRVVSVLTVLHQDWLNGKEYKCKVSNKALPAPIEKTISKAKGQPREPQVCTLPPSRDELTKNQVSLWCLVKGFYPSDIAVEWESNGQPENNYKTTPPVLDSDGSFFLYSKLTVDKSRWQQGNVFSCSVMHEALHNRYTQKSLSLSP
light: DIVMTQSPLSLPVTPGEPASISCRSSQSLVHSNRNTYLHWYQQKPGQAPRLLIYKVSNRFSGVPDRFSGSGSGTDFTLKISRVEAEDVGVYYCDQGTQVPYTFGQGTKLEIKRTVAAPSVFIFPPSDEQLKSGTASVVCLLNNFYPREAKVQWKVDNALQSGNSQESVTEQDSKDSTYSLSSTLTLSKADYEKHKVYACEVTHQGLSSPVTKSFNRGEC
notes: one-arm IgG1
B2: CE115HA000/GLS3000 G89E one-arm antibody (antibody, human IgG1, kappa, L234A L235A, N297A, name in Kabat numbering)
heavy: QVQLVESGGGVVQPGRSLRLSCAASGFTFSNAWMHWVRQAPGKGLEWVAQIKAKSNNYATYYAESVKGRFTISRDDSKNSLYLQMNSLKTEDTAVYYCRYVHYGAYYGVDAWGQGTTVTVSSASTKGPSVFPLAPSSKSTSGGTAALGCLVKDYFPEPVTVSWNSGALTSGVHTFPAVLQSSGLYSLSSVVTVPSSSLGTQTYICNVNHKPSNTKVDKKVEPKSCDKTHTCPPCPAPEAAGGPSVFLFPPKPKDTLMISRTPEVTCVVVDVSHEDPEVKFNWYVDGVEVHNAKTKPREEQYASTYRVVSVLTVLHQDWLNGKEYKCKVSNKALPAPIEKTISKAKGQPREPQVYTLPPSRCELTKNQVSLSCAVKGFYPSDIAVEWESNGQPENNYKTTPPVLDSDGSFFLVSKLTVDKSRWQQGNVFSCSVMHEALHNHYTQKSLSLSPDYKDDDDK
chain: EPKSSDKTHTCPPCPAPELLGGPSVFLFPPKPKDTLMISRTPEVTCVVVDVSHEDPEVKFNWYVDGVEVHNAKTKPREEQYNSTYRVVSVLTVLHQDWLNGKEYKCKVSNKALPAPIEKTISKAKGQPREPQVCTLPPSRDELTKNQVSLWCLVKGFYPSDIAVEWESNGQPENNYKTTPPVLDSDGSFFLYSKLTVDKSRWQQGNVFSCSVMHEALHNRYTQKSLSLSP
light: DIVMTQSPLSLPVTPGEPASISCRSSQSLVHSNRNTYLHWYQQKPGQAPRLLIYKVSNRFSGVPDRFSGSGSGTDFTLKISRVEAEDVGVYYCEQGTQVPYTFGQGTKLEIKRTVAAPSVFIFPPSDEQLKSGTASVVCLLNNFYPREAKVQWKVDNALQSGNSQESVTEQDSKDSTYSLSSTLTLSKADYEKHKVYACEVTHQGLSSPVTKSFNRGEC
notes: one-arm IgG1
B3: CE115HA000/GLS3000 G89F one-arm antibody (antibody, human IgG1, kappa, L234A L235A, N297A, name in Kabat numbering)
heavy: QVQLVESGGGVVQPGRSLRLSCAASGFTFSNAWMHWVRQAPGKGLEWVAQIKAKSNNYATYYAESVKGRFTISRDDSKNSLYLQMNSLKTEDTAVYYCRYVHYGAYYGVDAWGQGTTVTVSSASTKGPSVFPLAPSSKSTSGGTAALGCLVKDYFPEPVTVSWNSGALTSGVHTFPAVLQSSGLYSLSSVVTVPSSSLGTQTYICNVNHKPSNTKVDKKVEPKSCDKTHTCPPCPAPEAAGGPSVFLFPPKPKDTLMISRTPEVTCVVVDVSHEDPEVKFNWYVDGVEVHNAKTKPREEQYASTYRVVSVLTVLHQDWLNGKEYKCKVSNKALPAPIEKTISKAKGQPREPQVYTLPPSRCELTKNQVSLSCAVKGFYPSDIAVEWESNGQPENNYKTTPPVLDSDGSFFLVSKLTVDKSRWQQGNVFSCSVMHEALHNHYTQKSLSLSPDYKDDDDK
chain: EPKSSDKTHTCPPCPAPELLGGPSVFLFPPKPKDTLMISRTPEVTCVVVDVSHEDPEVKFNWYVDGVEVHNAKTKPREEQYNSTYRVVSVLTVLHQDWLNGKEYKCKVSNKALPAPIEKTISKAKGQPREPQVCTLPPSRDELTKNQVSLWCLVKGFYPSDIAVEWESNGQPENNYKTTPPVLDSDGSFFLYSKLTVDKSRWQQGNVFSCSVMHEALHNRYTQKSLSLSP
light: DIVMTQSPLSLPVTPGEPASISCRSSQSLVHSNRNTYLHWYQQKPGQAPRLLIYKVSNRFSGVPDRFSGSGSGTDFTLKISRVEAEDVGVYYCFQGTQVPYTFGQGTKLEIKRTVAAPSVFIFPPSDEQLKSGTASVVCLLNNFYPREAKVQWKVDNALQSGNSQESVTEQDSKDSTYSLSSTLTLSKADYEKHKVYACEVTHQGLSSPVTKSFNRGEC
notes: one-arm IgG1
B4: CE115HA000/GLS3000 G89H one-arm antibody (antibody, human IgG1, kappa, L234A L235A, N297A, name in Kabat numbering)
heavy: QVQLVESGGGVVQPGRSLRLSCAASGFTFSNAWMHWVRQAPGKGLEWVAQIKAKSNNYATYYAESVKGRFTISRDDSKNSLYLQMNSLKTEDTAVYYCRYVHYGAYYGVDAWGQGTTVTVSSASTKGPSVFPLAPSSKSTSGGTAALGCLVKDYFPEPVTVSWNSGALTSGVHTFPAVLQSSGLYSLSSVVTVPSSSLGTQTYICNVNHKPSNTKVDKKVEPKSCDKTHTCPPCPAPEAAGGPSVFLFPPKPKDTLMISRTPEVTCVVVDVSHEDPEVKFNWYVDGVEVHNAKTKPREEQYASTYRVVSVLTVLHQDWLNGKEYKCKVSNKALPAPIEKTISKAKGQPREPQVYTLPPSRCELTKNQVSLSCAVKGFYPSDIAVEWESNGQPENNYKTTPPVLDSDGSFFLVSKLTVDKSRWQQGNVFSCSVMHEALHNHYTQKSLSLSPDYKDDDDK
chain: EPKSSDKTHTCPPCPAPELLGGPSVFLFPPKPKDTLMISRTPEVTCVVVDVSHEDPEVKFNWYVDGVEVHNAKTKPREEQYNSTYRVVSVLTVLHQDWLNGKEYKCKVSNKALPAPIEKTISKAKGQPREPQVCTLPPSRDELTKNQVSLWCLVKGFYPSDIAVEWESNGQPENNYKTTPPVLDSDGSFFLYSKLTVDKSRWQQGNVFSCSVMHEALHNRYTQKSLSLSP
light: DIVMTQSPLSLPVTPGEPASISCRSSQSLVHSNRNTYLHWYQQKPGQAPRLLIYKVSNRFSGVPDRFSGSGSGTDFTLKISRVEAEDVGVYYCHQGTQVPYTFGQGTKLEIKRTVAAPSVFIFPPSDEQLKSGTASVVCLLNNFYPREAKVQWKVDNALQSGNSQESVTEQDSKDSTYSLSSTLTLSKADYEKHKVYACEVTHQGLSSPVTKSFNRGEC
notes: one-arm IgG1
B5: CE115HA000/GLS3000 G89I one-arm antibody (antibody, human IgG1, kappa, L234A L235A, N297A, name in Kabat numbering)
heavy: QVQLVESGGGVVQPGRSLRLSCAASGFTFSNAWMHWVRQAPGKGLEWVAQIKAKSNNYATYYAESVKGRFTISRDDSKNSLYLQMNSLKTEDTAVYYCRYVHYGAYYGVDAWGQGTTVTVSSASTKGPSVFPLAPSSKSTSGGTAALGCLVKDYFPEPVTVSWNSGALTSGVHTFPAVLQSSGLYSLSSVVTVPSSSLGTQTYICNVNHKPSNTKVDKKVEPKSCDKTHTCPPCPAPEAAGGPSVFLFPPKPKDTLMISRTPEVTCVVVDVSHEDPEVKFNWYVDGVEVHNAKTKPREEQYASTYRVVSVLTVLHQDWLNGKEYKCKVSNKALPAPIEKTISKAKGQPREPQVYTLPPSRCELTKNQVSLSCAVKGFYPSDIAVEWESNGQPENNYKTTPPVLDSDGSFFLVSKLTVDKSRWQQGNVFSCSVMHEALHNHYTQKSLSLSPDYKDDDDK
chain: EPKSSDKTHTCPPCPAPELLGGPSVFLFPPKPKDTLMISRTPEVTCVVVDVSHEDPEVKFNWYVDGVEVHNAKTKPREEQYNSTYRVVSVLTVLHQDWLNGKEYKCKVSNKALPAPIEKTISKAKGQPREPQVCTLPPSRDELTKNQVSLWCLVKGFYPSDIAVEWESNGQPENNYKTTPPVLDSDGSFFLYSKLTVDKSRWQQGNVFSCSVMHEALHNRYTQKSLSLSP
light: DIVMTQSPLSLPVTPGEPASISCRSSQSLVHSNRNTYLHWYQQKPGQAPRLLIYKVSNRFSGVPDRFSGSGSGTDFTLKISRVEAEDVGVYYCIQGTQVPYTFGQGTKLEIKRTVAAPSVFIFPPSDEQLKSGTASVVCLLNNFYPREAKVQWKVDNALQSGNSQESVTEQDSKDSTYSLSSTLTLSKADYEKHKVYACEVTHQGLSSPVTKSFNRGEC
notes: one-arm IgG1
B6: CE115HA000/GLS3000 G89K one-arm antibody (antibody, human IgG1, kappa, L234A L235A, N297A, name in Kabat numbering)
heavy: QVQLVESGGGVVQPGRSLRLSCAASGFTFSNAWMHWVRQAPGKGLEWVAQIKAKSNNYATYYAESVKGRFTISRDDSKNSLYLQMNSLKTEDTAVYYCRYVHYGAYYGVDAWGQGTTVTVSSASTKGPSVFPLAPSSKSTSGGTAALGCLVKDYFPEPVTVSWNSGALTSGVHTFPAVLQSSGLYSLSSVVTVPSSSLGTQTYICNVNHKPSNTKVDKKVEPKSCDKTHTCPPCPAPEAAGGPSVFLFPPKPKDTLMISRTPEVTCVVVDVSHEDPEVKFNWYVDGVEVHNAKTKPREEQYASTYRVVSVLTVLHQDWLNGKEYKCKVSNKALPAPIEKTISKAKGQPREPQVYTLPPSRCELTKNQVSLSCAVKGFYPSDIAVEWESNGQPENNYKTTPPVLDSDGSFFLVSKLTVDKSRWQQGNVFSCSVMHEALHNHYTQKSLSLSPDYKDDDDK
chain: EPKSSDKTHTCPPCPAPELLGGPSVFLFPPKPKDTLMISRTPEVTCVVVDVSHEDPEVKFNWYVDGVEVHNAKTKPREEQYNSTYRVVSVLTVLHQDWLNGKEYKCKVSNKALPAPIEKTISKAKGQPREPQVCTLPPSRDELTKNQVSLWCLVKGFYPSDIAVEWESNGQPENNYKTTPPVLDSDGSFFLYSKLTVDKSRWQQGNVFSCSVMHEALHNRYTQKSLSLSP
light: DIVMTQSPLSLPVTPGEPASISCRSSQSLVHSNRNTYLHWYQQKPGQAPRLLIYKVSNRFSGVPDRFSGSGSGTDFTLKISRVEAEDVGVYYCKQGTQVPYTFGQGTKLEIKRTVAAPSVFIFPPSDEQLKSGTASVVCLLNNFYPREAKVQWKVDNALQSGNSQESVTEQDSKDSTYSLSSTLTLSKADYEKHKVYACEVTHQGLSSPVTKSFNRGEC
notes: one-arm IgG1

The binders below were run against T1, CD3 epsilon homodimer protein (UniProt P07766 23-126) (assay: SPR (Biacore T200), CD3e homodimer on CM4 chip, antibody as analyte; KD ratio vs unaltered GLS3000;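 further: CD3 epsilon homodimer amine-coupled to the sensor surface, antibodies injected as analyte at 25 °C with HBS-EP+ running buffer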).
T1 construct: also called CD3 (CD3 epsilon)
T1 sequence (P07766 23-126): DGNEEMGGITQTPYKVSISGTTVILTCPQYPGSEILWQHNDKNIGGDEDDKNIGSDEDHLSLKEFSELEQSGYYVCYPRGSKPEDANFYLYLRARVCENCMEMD

Going from B1 to B2, the “KD ratio to GLS3000” value rises from 1.96 ratio to 34.6 ratio.

Compared with B3, B4 is lower in “KD ratio to GLS3000” value: 3.34 ratio for the first, 1.44 ratio for the second.

First: B5
Second: B6
The “KD ratio to GLS3000” value of the first is lower: 1.11 ratio for the first, 1.8 ratio for the second.

Source: patent publication US20240270846A1 (published 2024)
